# From patent US20060088522A1, “Humanized anti-5T4 antibodies and anti-5T4/calicheamicin conjugates” (Wyeth, priority 2004, published 2006)
# Numbering of substitutions follows the chain as printed.
# B1: Humanized H8 version 2 (hVH2/hVL2) (antibody, human IgG4 S228P, kappa, V domains shown)
# VH: QVQLVQSGAEVKKPGASVKVSCKASGYSFTGYYMHWVRQAPGQGLEWMGRINPNNGVTLYNQKFKDRVTMTRDTSISTAYMELSRLRSDDTAVYYCARSTMITNYVMDYWGQGTLVTVSS
# VL: DIVMTQSPDSLAVSLGERATINCKASQSVSNDVAWYQQKPGQPPKLLIYYTSSRYAGVPDRFSGSGSGTDFTLTISSLQAEDVAVYYCQQDYNSPPTFGGGTKLEIKR
# B2: Humanized H8 version 2/CM (antibody, human IgG4 S228P, kappa, V domains shown)
# VH: B1 VH
# VL: B1 VL
# modifications: calicheamicin (CM) conjugated; linker and residues not stated
# notes: also called humanized H8 version 2-calicheamicin conjugates
# B3: Humanized H8 version 2/AcBut/CalichDMH (antibody, human IgG4 S228P, kappa, V domains shown)
# VH: B1 VH
# VL: B1 VL
# modifications: CalichDMH conjugated through the AcBut linker; residues not stated
# notes: Conjugate sample contained 61 ug CalichDMH per mg protein, 1% free antibody, 1.4% aggregate; also called humanized H8 calicheamicin conjugate
# B4: Humanized H8 version 1 (hVH1/hVL1) (antibody, human IgG4 S228P, kappa, V domains shown)
# VH: B1 VH with R38K, A40S, M48I
# VL: B1 VL with P43S, Y49S, Y87F
# B5: Humanized H8 version 3 (hVH3/hVL2) (antibody, human IgG4 S228P, kappa, V domains shown)
# VH: B1 VH with M70I, I76T, R85S, D89E
# VL: B1 VL
# B6: H8-AcBut-CalichDMH (antibody, V domains shown)
# VH: EVQLQQSGPDLVKPGASVKISCKASGYSFTGYYMHWVKQSHGKSLEWIGRINPNNGVTLYNQKFKDKAILTVDKSSTTAYMELRSLTSEDSAVYYCARSTMITNYVMDYWGQVTSVTVSS
# VL: SIVMTQTPTFLLVSAGDRVTITCKASQSVSNDVAWYQQKPGQSPTLLISYTSSRYAGVPDRFIGSGYGTDFTFTISTLQAEDLAVYFCQQDYNSPPTFGGGTKLEIK
# B7: Chimeric H8 (mVH/mVL) (antibody, V domains shown)
# VH: B6 VH
# VL: B6 VL
# notes: also called chimeric H8 antibody; chimeric versions of H8
# B8: murine H8 anti-5T4 antibody (antibody, V domains shown)
# VH: B6 VH
# VL: B6 VL
# notes: also called mAb5T4; H8 antibody
# B9: H8 antibody/PEG-SBA (PEG5K) (antibody, V domains shown)
# VH: B6 VH
# VL: B6 VL
# notes: also called H8PEG5K; H8PEG
# B10: H8-Amide-CalichDMH (antibody, V domains shown)
# VH: B6 VH
# VL: B6 VL
# B11: H8 antibody/PEG-SPA (PEG2K) (antibody, V domains shown)
# VH: B6 VH
# VL: B6 VL
# notes: also called H8PEG2K; H8PEG
# B12: Semi-Humanized H8 (mVH/hVL1) (antibody, human IgG4 S228P, kappa, V domains shown)
# VH: B6 VH
# VL: B1 VL with P43S, Y49S, Y87F
# notes: murine H8 VH + mutated human IgG4; also called semi-humanized H8 antibody; semi-human anti-5T4 antibody
# B13: H8 antibody/PEG-bis-maleimide (PEGmal2) (antibody, V domains shown)
# VH: B6 VH
# VL: B6 VL
# notes: also called H8PEGmal2; H8PEG(mal2)
# B14: H8PEGmal2-AcBut-CalichDMH (antibody, V domains shown)
# VH: B6 VH
# VL: B6 VL
# B15: H8-AcPac-CalichDMH (antibody, V domains shown)
# VH: B6 VH
# VL: B6 VL
# B16: Murine H8/CM (antibody, V domains shown)
# VH: B6 VH
# VL: B6 VL
# notes: also called murine H8-calicheamicin conjugates
# Key:
# PC14PE6 lung tumors = assay: orthotopic model of human lung cancer; format: in vivo, nude mice; conditions: intraperitoneal, 3 doses on days 6, 10 and 14
# Procedure: To further assess the targeting ability of antibodies having an H8-calicheamicin conjugates, an orthotopic model for non-small cell and small cell cancer was used, essentially as described by Onn et al. (2003) Clin. Cancer Res. 9(15):5532-5539. In brief, human lung adenocarcinoma (PC14PE6) cells were injected into tail veins of nude mice, which then migrated to form tumors in lung. Tumors appeared as solid nodules in the lung parenchyma and caused hemorrhagic pleural effusions containing suspended tumor cells. Injection of control compounds and H8-calicheacmicin conjugates were administered by intraperitoneal injection to tumor-bearing mice beginning at 6 days after injection of tumor cells for a total of 3 doses given at 4-day intervals, i.e., on days 6, 10, and 14.
# human 5T4 antigen [1] = target: T1, human 5T4 antigen (human, UniProt Q13641 32-355, limits assumed); assay: BIACORE, human 5T4 antigen immobilized on a CM5 chip, antibody 12.5 nM to 200 nM
# T1 construct: Isolated antigen as used in BIACORE and ELISA; also called 5T4 oncofetal antigen
# T1 sequence (looked up): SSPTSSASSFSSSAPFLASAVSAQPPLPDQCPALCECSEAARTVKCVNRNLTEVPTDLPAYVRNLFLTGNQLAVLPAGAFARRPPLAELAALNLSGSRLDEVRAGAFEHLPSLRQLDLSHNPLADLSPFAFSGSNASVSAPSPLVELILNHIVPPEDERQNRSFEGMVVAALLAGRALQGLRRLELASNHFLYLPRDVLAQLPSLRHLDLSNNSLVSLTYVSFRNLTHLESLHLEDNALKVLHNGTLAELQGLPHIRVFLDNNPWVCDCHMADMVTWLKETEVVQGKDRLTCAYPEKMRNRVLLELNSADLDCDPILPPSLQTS
# Procedure: BIACORE® technology utilizes changes in the refractive index at the surface layer upon binding of the antibody to the 5T4 antigen immobilized on the layer. Binding is detected by surface plasmon resonance (SPR) of laser light refracting from the surface. Analysis of the signal kinetics on rate and off rate allows the discrimination between non-specific and specific interaction. The concentration of antibody used was in the range of 12.5 nM to 200 nM.
# human 5T4 antigen [2] = target: T1, human 5T4 antigen; assay: BIACORE (plasmon resonance)
# [3] = target: T2, human 5T4 antigen on cells (human, UniProt Q13641 32-420); assay: cell-based or functional assay
# T2 construct: whole, on cells; also called 5T4 on MDAMB435/5T4 cells; 5T4 on CT26/5T4 cells
# T2 sequence (looked up): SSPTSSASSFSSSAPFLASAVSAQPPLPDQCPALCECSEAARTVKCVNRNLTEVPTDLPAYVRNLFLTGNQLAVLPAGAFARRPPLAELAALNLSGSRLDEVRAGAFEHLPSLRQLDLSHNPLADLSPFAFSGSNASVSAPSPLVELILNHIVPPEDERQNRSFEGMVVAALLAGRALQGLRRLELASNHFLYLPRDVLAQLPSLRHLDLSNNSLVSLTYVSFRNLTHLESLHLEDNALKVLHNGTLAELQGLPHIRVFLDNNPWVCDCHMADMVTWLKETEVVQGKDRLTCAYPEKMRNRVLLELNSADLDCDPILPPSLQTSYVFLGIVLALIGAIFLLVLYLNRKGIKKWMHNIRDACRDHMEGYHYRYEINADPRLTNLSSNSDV
# human 5T4 antigen [4] = target: T1, human 5T4 antigen; assay: competition ELISA on plate-coated human 5T4 antigen; competitor biotinylated chimeric H8 at its ED50
# Procedure: ELISA plates were coated with human 5T4 antigen. To each well was added 100 μl of 1 μg/ml 5T4 antigen in PBS-CMF pH 7.2. The plates were incubated overnight at 4° C. After coating with antigen, plates were washed in a blocking solution of 0.02% casein in PBS-CMF, pH 7.2 for 2-4 hours at room temperature. […] Plates were washed 4 times with 200 μl of 0.03% TWEEN®-20 in PBS. The signal was developed for 10-15 minutes at room temperature following addition of 100 ∥l BIOFX® TMB (Biofx Laboratories, Inc. of Randallstown, Md.) per well. The reaction was stopped by addition of 100 μl per well of 0.18 N H₂SO₄. All incubation and wash steps were performed with gentle agitation. […] The ED50 of biotinylated antibody binding to antigen was determined by plotting OD₄₅₀ (duplicate data points averaged) as a function of biotinylated antibody concentration. […] The biotin label was amplified using streptavidin-HRP diluted 1:10,000 in assay buffer, followed by signal development and quantification as above.
# [5] = target: T2, human 5T4 antigen on cells; assay: flow cytometry on N87, PC14PE6 and NCl-H157 cells (told of each)
# [6] = target: T2, human 5T4 antigen on cells; assay: flow cytometry on MDAMB435/5T4 cells
# human 5T4 antigen [7] = target: T1, human 5T4 antigen; assay: BIACORE
# [8] = target: T2, human 5T4 antigen on cells; assay: FACS on MDAMB435/5T4 cells
molecule,measurement,setting,value
"CMA: anti-CD33 antibody (p67.6) conjugated to calicheamicin, AcBut linker; control conjugate",pleural effusions,PC14PE6 lung tumors,did not reduce the pleural effusions
same,survival of tumor-bearing animals,PC14PE6 lung tumors,slightly increased the average survival
B1,Kd,human 5T4 antigen [1],0.12 nM
B2,Kd,human 5T4 antigen [2],0.17 nM
same,koff,human 5T4 antigen [2],2e-05 s⁻¹
same,kon,human 5T4 antigen [2],120000 M⁻¹ s⁻¹
B3,Kd,human 5T4 antigen [2],0.26 nM
same,koff,human 5T4 antigen [2],3.4e-05 s⁻¹
same,kon,human 5T4 antigen [2],130000 M⁻¹ s⁻¹
B4,Kd,human 5T4 antigen [1],0.84 nM
B5,Kd,human 5T4 antigen [1],0.12 nM
B6,"ED50 (ng/ml calicheamicin), MTS vital dye, MDAMB435/5T4 cells",[3],0.04 ng/mL
B7,IC50,human 5T4 antigen [4],1 nM
same,Kd,human 5T4 antigen [1],0.3 nM
same,koff,human 5T4 antigen [1],4.2e-05 s⁻¹
same,kon,human 5T4 antigen [1],140000 M⁻¹ s⁻¹
B8,fold signal over control IgG,[5],~10 fold
same,Kd,human 5T4 antigen [1],0.58 nM
same,koff,human 5T4 antigen [1],5.9e-05 s⁻¹
same,kon,human 5T4 antigen [1],100000 M⁻¹ s⁻¹
same,fold signal over control IgG,[6],> 100 fold
B9,fraction of binding to 5T4 lost following antibody modification,human 5T4 antigen [7],79%
B10,"ED50 (ng/ml calicheamicin), MTS vital dye, MDAMB435/5T4 cells",[3],0.18 ng/mL
same,"fold cytotoxicity, 5T4-expressing against 5T4-negative cells",[3],200 fold
B11,fraction of binding to 5T4 lost following antibody modification,human 5T4 antigen [7],69%
B12,binding result,[8],binds
B13,fraction of binding to 5T4 lost following antibody modification,human 5T4 antigen [7],43%
B14,"ED50 (ng/ml calicheamicin), MTS vital dye, MDAMB435/5T4 cells",[3],0.9 ng/mL
B15,"ED50 (ng/ml calicheamicin), MTS vital dye, MDAMB435/5T4 cells",[3],0.02 ng/mL
B16,Kd,human 5T4 antigen [2],0.58 nM
same,koff,human 5T4 antigen [2],5.9e-05 s⁻¹
same,kon,human 5T4 antigen [2],100000 M⁻¹ s⁻¹
